Results from paper PMC5298935 (2016).
Each block holds one binder with its values, some of them ahead of it. Square brackets hold non-standard residues; d marks the D form. Ends that are not written are not given here. pS = N[C@@H](COP(=O)(O)O)C(=O)O

Columns and labels:
Assay in all cases: NMR titration
[1] = target: T1, IRAK1 p163 peptide 157-180 (Homo sapiens, UniProt P51617, phospho-Ser163)
T1 chain: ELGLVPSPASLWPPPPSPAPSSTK

[2] = target: T2, IRAK1 p144 peptide 140-149 (Homo sapiens, UniProt P51617)
T2 chain: STFL[pS]PAFPG

[3] = target: T3, IRAK1 p131 peptide 126-135 (Homo sapiens, UniProt P51617)
T3 chain: EAEAW[pS]PRKL

[4] = target: T4, IRAK1 p163 peptide 157-180 (Homo sapiens, UniProt P51617)
T4 chain: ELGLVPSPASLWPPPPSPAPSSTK

Kd [1]: 230 µM
Kd [2]: 689 µM
Kd [3]: 161 µM
B1: Pin1 PPIase domain 46-163 (protein)
chain: KNGQGEPARVRCSHLLVKHSQSRRPSSWRQEKITRTKEEALELINGYIQKIKSGEEDFESLASQFSDCSSAKARGDLGAFSRGQMQKPFEDASFALRTGEMSGPVFTDSGIHIILRTE

Kd [4]: 385 µM
Binder: MADEEKLPPGWEKRMSRSSGRVYYFNHITNASQWERPSGNSSSGGKNGQG (not fully specified; phospho-Ser163) [Pin1 WW domain 1-50]
